T1: ARHGEF11, O15085
T1 sequence (O15085 42-136, limits assumed, looked up): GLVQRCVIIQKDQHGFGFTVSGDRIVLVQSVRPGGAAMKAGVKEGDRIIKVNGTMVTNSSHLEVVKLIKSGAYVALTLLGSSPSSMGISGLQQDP

T2: NHERF3_4, Q5T2W1
T2 sequence (Q5T2W1 373-468, limits assumed, looked up): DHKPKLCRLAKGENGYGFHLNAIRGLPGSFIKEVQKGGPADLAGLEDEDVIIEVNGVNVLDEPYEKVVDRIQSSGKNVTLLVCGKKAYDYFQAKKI

T3: TIAM2, Q8IVF5
T3 sequence (Q8IVF5 885-986, limits assumed, looked up): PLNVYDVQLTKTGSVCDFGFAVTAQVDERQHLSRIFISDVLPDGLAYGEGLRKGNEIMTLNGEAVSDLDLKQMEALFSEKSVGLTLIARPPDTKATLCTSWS

T4: GRIP1_4, Q9Y3R0
T4 sequence (Q9Y3R0 467-571, limits assumed, looked up): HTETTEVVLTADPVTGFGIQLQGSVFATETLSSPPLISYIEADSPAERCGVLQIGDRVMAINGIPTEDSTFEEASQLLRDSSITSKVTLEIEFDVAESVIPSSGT

T5: APBA3_1, O96018
T5 sequence (O96018 389-490, limits assumed, looked up): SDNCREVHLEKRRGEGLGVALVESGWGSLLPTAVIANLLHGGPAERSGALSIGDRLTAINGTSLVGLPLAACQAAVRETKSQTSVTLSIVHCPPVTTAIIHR

T6: LNX2_3, Q8N448
T6 sequence (Q8N448 463-564, limits assumed, looked up): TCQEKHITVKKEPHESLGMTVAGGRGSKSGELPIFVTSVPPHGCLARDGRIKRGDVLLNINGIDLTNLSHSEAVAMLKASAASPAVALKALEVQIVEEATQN

T7: PDZD2_2, O15018
T7 sequence (O15018 329-429, limits assumed, looked up): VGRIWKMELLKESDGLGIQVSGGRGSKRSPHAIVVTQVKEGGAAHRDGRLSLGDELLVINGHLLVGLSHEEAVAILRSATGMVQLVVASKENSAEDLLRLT

T8: SNTG2, Q9NY99
T8 sequence (Q9NY99 68-166, limits assumed, looked up): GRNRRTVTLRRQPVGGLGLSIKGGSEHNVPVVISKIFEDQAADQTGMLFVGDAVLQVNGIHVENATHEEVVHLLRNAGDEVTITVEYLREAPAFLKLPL

T9: SNTB1, Q13884
T9 sequence (Q13884 107-205, limits assumed, looked up): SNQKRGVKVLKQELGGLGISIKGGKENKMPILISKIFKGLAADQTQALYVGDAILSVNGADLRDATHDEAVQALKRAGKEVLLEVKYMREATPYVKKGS

T10: PDZRN3_1, Q9UPQ7
T10 sequence (Q9UPQ7 244-349, limits assumed, looked up): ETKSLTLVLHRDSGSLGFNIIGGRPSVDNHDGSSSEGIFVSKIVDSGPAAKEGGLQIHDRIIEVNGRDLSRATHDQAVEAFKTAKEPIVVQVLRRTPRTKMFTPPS

T11: HTRA4, P83105
T11 sequence (P83105 378-476, limits assumed, looked up): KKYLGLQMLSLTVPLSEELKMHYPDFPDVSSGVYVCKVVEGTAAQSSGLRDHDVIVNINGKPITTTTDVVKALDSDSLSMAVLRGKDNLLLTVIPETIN

T12: LIN7C, Q9NUP9
T12 sequence (Q9NUP9 88-185, limits assumed, looked up): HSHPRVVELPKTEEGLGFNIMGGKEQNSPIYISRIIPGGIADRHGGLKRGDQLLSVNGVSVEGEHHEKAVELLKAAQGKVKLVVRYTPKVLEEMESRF

B1: IGSF5, Q9NSI5 (peptide)
chain: PEKVSNTTVV
B2: KCNB1, Q14721 (peptide)
chain: AHGSTRDQSI

What follows are binders tested against LNX1_2, Q8TBB1 (assay: holdup assay). Conditions: plain residues with an end cap or a label only (N-terminal biotin on a linker: ado-ado).
Sequence of LNX1_2, Q8TBB1 (Q8TBB1 371-470): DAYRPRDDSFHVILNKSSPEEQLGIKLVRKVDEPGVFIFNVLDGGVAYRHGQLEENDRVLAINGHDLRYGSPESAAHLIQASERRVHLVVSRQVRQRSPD
Design: key: below the threshold = too weak to quantify, mostly under pKd 3.1 to 4
B1 was tested, and the pKd was 3.73. For B2, the pKd was “below the threshold”.

Each binder was assayed against T1, ARHGEF11, O15085 (assay: holdup assay). Conditions: plain residues with an end cap or a label only (N-terminal biotin on a linker: ado-ado).
Design: key: below the threshold = too weak to quantify, mostly under pKd 3.1 to 4
B1 gave a pKd of 4.24. Binder B2 has a pKd of 4.4.

The binders below were run against T2, NHERF3_4, Q5T2W1 (assay: holdup assay). Conditions: plain residues with an end cap or a label only (N-terminal biotin on a linker: ado-ado).
Design: key: below the threshold = too weak to quantify, mostly under pKd 3.1 to 4
In the case of B1, the pKd is reported as “below the threshold”. For B2, the pKd was “below the threshold”.

These binders were tested against FRMPD2_2, Q68DX3 (assay: holdup assay). Conditions: plain residues with an end cap or a label only (N-terminal biotin on a linker: ado-ado).
Sequence of FRMPD2_2, Q68DX3 (Q68DX3 944-1038): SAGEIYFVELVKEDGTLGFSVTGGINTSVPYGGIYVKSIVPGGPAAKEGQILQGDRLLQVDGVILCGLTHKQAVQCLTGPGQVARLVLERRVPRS
Design: key: below the threshold = too weak to quantify, mostly under pKd 3.1 to 4
B1 was tested, and the pKd was “below the threshold”. For B2, the pKd was “below the threshold”.

What follows are binders tested against T3, TIAM2, Q8IVF5 (assay: holdup assay). Conditions: plain residues with an end cap or a label only (N-terminal biotin on a linker: ado-ado).
Design: key: below the threshold = too weak to quantify, mostly under pKd 3.1 to 4
B1 gave a pKd of 4.04. In the case of B2, the pKd is reported as 4.05.

The binders below were run against T4, GRIP1_4, Q9Y3R0 (assay: holdup assay). Conditions: plain residues with an end cap or a label only (N-terminal biotin on a linker: ado-ado).
Design: key: below the threshold = too weak to quantify, mostly under pKd 3.1 to 4
B1 was tested, and the pKd was “below the threshold”. With B2 the pKd was “below the threshold”.

These binders were tested against MAGI2_4, Q86UL8 (assay: holdup assay). Conditions: plain residues with an end cap or a label only (N-terminal biotin on a linker: ado-ado).
Sequence of MAGI2_4, Q86UL8 (Q86UL8 772-865): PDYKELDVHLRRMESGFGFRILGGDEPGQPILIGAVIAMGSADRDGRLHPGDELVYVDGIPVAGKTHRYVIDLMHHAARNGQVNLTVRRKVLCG
Design: key: below the threshold = too weak to quantify, mostly under pKd 3.1 to 4
Binder B1 has a pKd of 3.7. For B2, the pKd was 3.9.

Each binder was assayed against T5, APBA3_1, O96018 (assay: holdup assay). Conditions: plain residues with an end cap or a label only (N-terminal biotin on a linker: ado-ado).
Design: key: below the threshold = too weak to quantify, mostly under pKd 3.1 to 4
B1 was tested, and the pKd was “below the threshold”. In the case of B2, the pKd is reported as “below the threshold”.

What follows are binders tested against DLG2_2, Q15700 (assay: holdup assay). Conditions: plain residues with an end cap or a label only (N-terminal biotin on a linker: ado-ado).
Sequence of DLG2_2, Q15700 (Q15700 189-283): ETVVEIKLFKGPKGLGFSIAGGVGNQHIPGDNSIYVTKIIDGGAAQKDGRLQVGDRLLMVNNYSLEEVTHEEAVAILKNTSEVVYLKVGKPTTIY
Design: key: below the threshold = too weak to quantify, mostly under pKd 3.1 to 4
B1 gave a pKd of 4.44. B2 was tested, and the pKd was 3.86.

Each binder was assayed against T6, LNX2_3, Q8N448 (assay: holdup assay). Conditions: plain residues with an end cap or a label only (N-terminal biotin on a linker: ado-ado).
Design: key: below the threshold = too weak to quantify, mostly under pKd 3.1 to 4
B1 was tested, and the pKd was “below the threshold”. In the case of B2, the pKd is reported as “below the threshold”.

Each binder was assayed against SCRIB_2, Q14160 (assay: holdup assay). Conditions: plain residues with an end cap or a label only (N-terminal biotin on a linker: ado-ado).
Sequence of SCRIB_2, Q14160 (Q14160 857-960): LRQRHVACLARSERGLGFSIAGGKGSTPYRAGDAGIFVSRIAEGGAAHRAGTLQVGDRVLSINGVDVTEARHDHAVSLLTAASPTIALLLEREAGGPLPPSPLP
Design: key: below the threshold = too weak to quantify, mostly under pKd 3.1 to 4
In the case of B1, the pKd is reported as “below the threshold”. With B2 the pKd was “below the threshold”.

What follows are binders tested against T7, PDZD2_2, O15018 (assay: holdup assay). Conditions: plain residues with an end cap or a label only (N-terminal biotin on a linker: ado-ado).
Design: key: below the threshold = too weak to quantify, mostly under pKd 3.1 to 4
With B1 the pKd was 4.06. With B2 the pKd was “below the threshold”.

The binders below were run against IL16_4, Q14005 (assay: holdup assay). Conditions: plain residues with an end cap or a label only (N-terminal biotin on a linker: ado-ado).
Sequence of IL16_4, Q14005 (Q14005 1229-1329): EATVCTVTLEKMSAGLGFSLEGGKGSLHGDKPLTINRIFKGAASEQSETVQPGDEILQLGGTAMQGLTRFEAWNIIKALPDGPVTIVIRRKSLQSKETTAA
Design: key: below the threshold = too weak to quantify, mostly under pKd 3.1 to 4
B1 was tested, and the pKd was 3.51. For B2, the pKd was “below the threshold”.

These binders were tested against Inadl_3, Q8NI35 (assay: holdup assay). Conditions: plain residues with an end cap or a label only (N-terminal biotin on a linker: ado-ado).
Sequence of Inadl_3, Q8NI35 (Q8NI35 359-469): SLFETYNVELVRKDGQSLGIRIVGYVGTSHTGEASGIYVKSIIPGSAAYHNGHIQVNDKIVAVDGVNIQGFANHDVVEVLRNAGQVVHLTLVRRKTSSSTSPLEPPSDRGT
Design: key: below the threshold = too weak to quantify, mostly under pKd 3.1 to 4
B1 showed a pKd of 3.48. For B2, the pKd was “below the threshold”.

What follows are binders tested against LAP2, Q96RT1 (assay: holdup assay). Conditions: plain residues with an end cap or a label only (N-terminal biotin on a linker: ado-ado).
Sequence of LAP2, Q96RT1 (Q96RT1 other isoform, or with tags, fused parts or gaps): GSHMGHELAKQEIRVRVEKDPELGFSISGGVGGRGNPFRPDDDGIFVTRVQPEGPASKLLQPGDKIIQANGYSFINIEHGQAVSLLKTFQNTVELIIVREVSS
Design: key: below the threshold = too weak to quantify, mostly under pKd 3.1 to 4
With B1 the pKd was “below the threshold”. In the case of B2, the pKd is reported as “below the threshold”.

The binders below were run against T8, SNTG2, Q9NY99 (assay: holdup assay). Conditions: plain residues with an end cap or a label only (N-terminal biotin on a linker: ado-ado).
Design: key: below the threshold = too weak to quantify, mostly under pKd 3.1 to 4
Work on B1 yielded a pKd of 3.76. B2 was tested, and the pKd was “below the threshold”.

What follows are binders tested against T9, SNTB1, Q13884 (assay: holdup assay). Conditions: plain residues with an end cap or a label only (N-terminal biotin on a linker: ado-ado).
Design: key: below the threshold = too weak to quantify, mostly under pKd 3.1 to 4
Work on B1 yielded a pKd of 3.93. In the case of B2, the pKd is reported as “below the threshold”.

The binders below were run against AHNAK1, Q09666 (assay: holdup assay). Conditions: plain residues with an end cap or a label only (N-terminal biotin on a linker: ado-ado).
Sequence of AHNAK1, Q09666 (Q09666 4-100): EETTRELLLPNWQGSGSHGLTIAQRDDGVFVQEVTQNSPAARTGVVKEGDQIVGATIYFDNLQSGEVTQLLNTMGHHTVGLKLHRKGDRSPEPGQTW
Design: key: below the threshold = too weak to quantify, mostly under pKd 3.1 to 4
For B1, the pKd was “below the threshold”. With B2 the pKd was “below the threshold”.

What follows are binders tested against DLG1_3, Q12959 (assay: holdup assay). Conditions: plain residues with an end cap or a label only (N-terminal biotin on a linker: ado-ado).
Sequence of DLG1_3, Q12959 (Q12959 457-571): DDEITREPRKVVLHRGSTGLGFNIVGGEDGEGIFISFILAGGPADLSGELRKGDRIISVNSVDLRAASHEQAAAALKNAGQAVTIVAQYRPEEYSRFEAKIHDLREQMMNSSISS
Design: key: below the threshold = too weak to quantify, mostly under pKd 3.1 to 4
With B1 the pKd was “below the threshold”. Work on B2 yielded a pKd of 3.93.

The binders below were run against T10, PDZRN3_1, Q9UPQ7 (assay: holdup assay). Conditions: plain residues with an end cap or a label only (N-terminal biotin on a linker: ado-ado).
Design: key: below the threshold = too weak to quantify, mostly under pKd 3.1 to 4
For B1, the pKd was “below the threshold”. In the case of B2, the pKd is reported as “below the threshold”.

These binders were tested against T11, HTRA4, P83105 (assay: holdup assay). Conditions: plain residues with an end cap or a label only (N-terminal biotin on a linker: ado-ado).
Design: key: below the threshold = too weak to quantify, mostly under pKd 3.1 to 4
With B1 the pKd was “below the threshold”. B2 was tested, and the pKd was “below the threshold”.

What follows are binders tested against LNX1_3, Q8TBB1 (assay: holdup assay). Conditions: plain residues with an end cap or a label only (N-terminal biotin on a linker: ado-ado).
Sequence of LNX1_3, Q8TBB1 (Q8TBB1 500-596): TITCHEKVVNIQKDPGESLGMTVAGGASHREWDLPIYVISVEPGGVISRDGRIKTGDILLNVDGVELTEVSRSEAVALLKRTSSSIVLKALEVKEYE
Design: key: below the threshold = too weak to quantify, mostly under pKd 3.1 to 4
B1 was tested, and the pKd was “below the threshold”. For B2, the pKd was “below the threshold”.

What follows are binders tested against TJP1_3, Q07157 (assay: holdup assay). Conditions: plain residues with an end cap or a label only (N-terminal biotin on a linker: ado-ado).
Sequence of TJP1_3, Q07157 (Q07157 416-512): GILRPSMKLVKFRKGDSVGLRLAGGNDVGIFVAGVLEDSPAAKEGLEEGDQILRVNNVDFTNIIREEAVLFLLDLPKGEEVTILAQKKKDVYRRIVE
Design: key: below the threshold = too weak to quantify, mostly under pKd 3.1 to 4
With B1 the pKd was “below the threshold”. Binder B2 has a pKd of 3.48.

What follows are binders tested against SNX27, Q96L92 (assay: holdup assay). Conditions: plain residues with an end cap or a label only (N-terminal biotin on a linker: ado-ado).
Design: key: below the threshold = too weak to quantify, mostly under pKd 3.1 to 4
Binder B1 has a pKd of 4.51. B2 was tested, and the pKd was “below the threshold”.

What follows are binders tested against Inadl_6, Q8NI35 (assay: holdup assay). Conditions: plain residues with an end cap or a label only (N-terminal biotin on a linker: ado-ado).
Sequence of Inadl_6, Q8NI35 (Q8NI35 1058-1167): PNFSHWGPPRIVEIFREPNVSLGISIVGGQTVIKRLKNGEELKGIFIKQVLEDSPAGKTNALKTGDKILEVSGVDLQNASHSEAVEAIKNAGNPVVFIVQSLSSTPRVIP
Design: key: below the threshold = too weak to quantify, mostly under pKd 3.1 to 4
B1 was tested, and the pKd was “below the threshold”. For B2, the pKd was “below the threshold”.

The binders below were run against T12, LIN7C, Q9NUP9 (assay: holdup assay). Conditions: plain residues with an end cap or a label only (N-terminal biotin on a linker: ado-ado).
Design: key: below the threshold = too weak to quantify, mostly under pKd 3.1 to 4
B1 was tested, and the pKd was “below the threshold”. In the case of B2, the pKd is reported as “below the threshold”.

From PMC9482650, “Quantitative fragmentomics allow affinity mapping of interactomes” (Nature Communications, 2022)
